From the supplement of paper PMC11246515
± gives the standard deviation of the averaged measurements.

Assay: total protein half-life in vivo (active degradation + dilution); higher = more stable protein
[1] = E. coli NCM3722 delta-clpP delta-lon delta-hslV, growth: N-lim chemostat, doubling time 6 h
[2] = E. coli NCM3722 delta-clpP, growth: N-lim chemostat, doubling time 6 h
[3] = E. coli NCM3722 delta-hslV, growth: N-lim chemostat, doubling time 6 h
[4] = E. coli NCM3722 delta-lon, growth: N-lim chemostat, doubling time 6 h
[5] = E. coli NCM3722 delta-smpB, growth: N-lim chemostat, doubling time 6 h
[6] = wild type E. coli NCM3722, growth: C-lim chemostat, doubling time 3 h
[7] = wild type E. coli NCM3722, growth: C-lim chemostat, doubling time 6 h
[8] = wild type E. coli NCM3722, growth: C-lim chemostat, doubling time 12 h
[9] = wild type E. coli NCM3722, growth: N-lim chemostat, doubling time 6 h
[10] = wild type E. coli NCM3722, growth: N-lim chemostat, doubling time 12 h
[11] = wild type E. coli NCM3722, growth: P-lim chemostat, doubling time 6 h
[12] = wild type E. coli NCM3722, growth: P-lim chemostat, doubling time 12 h

MSQEYIEDKEVTLTKLSSGRRLLEALLILIVLFAVWLMAALLSFNPSDPSWSQTAWHEPIHNLGGMPGAWLADTLFFIFGVMAYTIPVIIVGGCWFAWRHQSSDEYIDYFAVSLRIIGVLALILTSCGLAAINADDIWYFASGGVIGSLLSTTLQPLLHSSGGTIALLCVWAAGLTLFTGWSWVTIAEKLGGWILNILTFASNRTRRDDTWVDEDEYEDDEEYEDENHGKQHESRRARILRGALARRKRLAEKFINPMGRQTDAALFSGKRMDDDEEITYTARGVAADPDDVLFSGNRATQPEYDEYDPLLNGAPITEPVAVAAAATTATQSWAAPVEPVTQTPPVASVDVPPAQPTVAWQPVPGPQTGEPVIAPAPEGYPQQSQYAQPAVQYNEPLQQPVQPQQPYYAPAAEQPAQQPYYAPAPEQPVAGNAWQAEEQQSTFAPQSTYQTEQTYQQPAAQEPLYQQPQPVEQQPVVEPEPVVEETKPARPPLYYFEEVEEKRAREREQLAAWYQPIPEPVKEPEPIKSSLKAPSVAAVPPVEAAAAVSPLASGVKKATLATGAAATVAAPVFSLANSGGPRPQVKEGIGPQLPRPKRIRVPTRRELASYGIKLPSQRAAEEKAREAQRNQYDSGDQYNDDEIDAMQQDELARQFAQTQQQRYGEQYQHDVPVNAEDADAAAEAELARQFAQTQQQRYSGEQPAGANPFSLDDFEFSPMKALLDDGPHEPLFTPIVEPVQQPQQPVAPQQQYQQPQQPVPPQPQYQQPQQPVAPQPQYQQPQQPVAPQQQYQQPQQPVAPQQQYQQPQQPVAPQPQDTLLHPLLMRNGDSRPLHKPTTPLPSLDLLTPPPSEVEPVDTFALEQMARLVEARLADFRIKADVVNYSPGPVITRFELNLAPGVKAARISNLSRDLARSLSTVAVRVVEVIPGKPYVGLELPNKKRQTVYLREVLDNAKFRDNPSPLTVVLGKDIAGEPVVADLAKMPHLLVAGTTGSGKSVGVNAMILSMLYKAQPEDVRFIMIDPKMLELSVYEGIPHLLTEVVTDMKDAANALRWCVNEMERRYKLMSALGVRNLAGYNEKIAEADRMMRPIPDPYWKPGDSMDAQHPVLKKEPYIVVLVDEFADLMMTVGKKVEELIARLAQKARAAGIHLVLATQRPSVDVITGLIKANIPTRIAFTVSSKIDSRTILDQAGAESLLGMGDMLYSGPNSTLPVRVHGAFVRDQEVHAVVQDWKARGRPQYVDGITSDSESEGGAGGFDGAEELDPLFDQAVQFVTEKRKASISGVQRQFRIGYNRAARIIEQMEAQGIVSEQGHNGNREVLAPPPFD
total protein half-life in vivo [1]: 3.531 ± 0.015 h
total protein half-life in vivo [2]: 2.17 ± 0.29 h
total protein half-life in vivo [3]: 1.2 ± 0.38 h
total protein half-life in vivo [4]: 1.48 ± 0.059 h
total protein half-life in vivo [5]: 0.895 ± 0.031 h
total protein half-life in vivo [6]: 0.891 ± 0.042 h
total protein half-life in vivo [7]: 1.36 ± 0.11 h
total protein half-life in vivo [8]: 1.76 ± 0.29 h
total protein half-life in vivo [9]: 1.39 ± 0.31 h
total protein half-life in vivo [10]: 1.57 ± 0.13 h
total protein half-life in vivo [11]: 1.48 ± 0.15 h
total protein half-life in vivo [12]: 2.78 ± 1 h

METYAVFGNPIAHSKSPFIHQQFAQQLNIEHPYGRVLAPINDFINTLNAFFSAGGKGANVTVPFKEEAFARADELTERAALAGAVNTLMRLEDGRLLGDNTDGVGLLSDLERLSFIRPGLRILLIGAGGASRGVLLPLLSLDCAVTITNRTVSRAEELAKLFAHTGSIQALSMDELEGHEFDLIINATSSGISGDIPAIPSSLIHPGIYCYDMFYQKGKTPFLAWCEQRGSKRNADGLGMLVAQAAHAFLLWHGVLPDVEPVIKQLQEELSA
total protein half-life in vivo [1]: 4 ± 0.39 h
total protein half-life in vivo [2]: 4.39 ± 0.89 h
total protein half-life in vivo [3]: 4.03 ± 0.27 h
total protein half-life in vivo [4]: 6.18 ± 2.5 h
total protein half-life in vivo [5]: 3.9 ± 0.14 h
total protein half-life in vivo [6]: 2.4 ± 0.59 h
total protein half-life in vivo [7]: 5.428 ± 0.014 h
total protein half-life in vivo [8]: 8.94 ± 2.3 h
total protein half-life in vivo [9]: 4.16 ± 0.36 h
total protein half-life in vivo [10]: 6.95 ± 0.015 h
total protein half-life in vivo [11]: 6.01 ± 0.18 h
total protein half-life in vivo [12]: 11.7 ± 1.5 h

MSVIETATVPLAQQQADALLNVKDLRVTFSTPDGDVTAVNDLNFSLRAGETLGIVGESGSGKSQTAFALMGLLAANGRIGGSATFNGREILNLPEHELNKLRAEQISMIFQDPMTSLNPYMRVGEQLMEVLMLHKNMSKAEAFEESVRMLDAVKMPEARKRMKMYPHEFSGGMRQRVMIAMALLCRPKLLIADEPTTALDVTVQAQIMTLLNELKREFNTAIIMITHDLVVVAGICDKVLVMYAGRTMEYGNARDVFYQPVHPYSIGLLNAVPRLDAEGETMLTIPGNPPNLLRLPKGCPFQPRCPHAMEICSSAPPLEEFTPGRLRACFKPVEELL
total protein half-life in vivo [1]: 5.379 ± 0.026 h
total protein half-life in vivo [2]: 5.7109 ± 0.0028 h
total protein half-life in vivo [3]: 5.53 ± 0.098 h
total protein half-life in vivo [4]: 4.81 ± 0.18 h
total protein half-life in vivo [5]: 5.34 ± 0.22 h
total protein half-life in vivo [6]: 2.84 ± 0.31 h
total protein half-life in vivo [7]: 5.49 ± 0.35 h
total protein half-life in vivo [8]: 11.4 ± 1.9 h
total protein half-life in vivo [9]: 5.29 ± 0.21 h
total protein half-life in vivo [10]: 11.4 ± 1.2 h
total protein half-life in vivo [11]: 5.715 ± 0.02 h
total protein half-life in vivo [12]: 11.6 ± 0.23 h

MEIREGHNKFYINDKQGKQIAEIVFVPTGENLAIIEHTDVDESLKGQGIGKQLVAKVVEKMRREKRKIIPLCPFAKHEFDKTREYDDIRS
total protein half-life in vivo [10]: > 16 h
total protein half-life in vivo [12]: 12 h

MAKVLVLYYSMYGHIETMARAVAEGASKVDGAEVVVKRVPETMPPQLFEKAGGKTQTAPVATPQELADYDAIIFGTPTRFGNMSGQMRTFLDQTGGLWASGALYGKLASVFSSTGTGGGQEQTITSTWTTLAHHGMVIVPIGYAAQELFDVSQVRGGTPYGATTIAGGDGSRQPSQEELSIARYQGEYVAGLAVKLNG [P0A8G6]
total protein half-life in vivo [1]: 5.48 ± 0.11 h
total protein half-life in vivo [2]: 5.53 ± 0.88 h
total protein half-life in vivo [3]: 5.48 ± 0.15 h
total protein half-life in vivo [4]: 5.7 ± 0.49 h
total protein half-life in vivo [5]: 4.89 ± 0.052 h
total protein half-life in vivo [6]: 3.227 ± 0.018 h
total protein half-life in vivo [7]: 5.98 ± 0.084 h
total protein half-life in vivo [8]: 11.1 ± 1.1 h
total protein half-life in vivo [9]: 5.31 ± 0.38 h
total protein half-life in vivo [10]: 9.99 ± 1.1 h
total protein half-life in vivo [11]: 5.69 ± 0.29 h
total protein half-life in vivo [12]: 11.7 ± 0.32 h

MTEMAKGSVTHQRLIALLSQEGADFRVVTHEAVGKCEAVSEIRGTALGQGAKALVCKVKGNGVNQHVLAILAADQQADLSQLASHIGGLRASLASPAEVDELTGCVFGAIPPFSFHPKLKLVADPLLFERFDEIAFNAGMLDKSVILKTADYLRIAQPELVNFRRTA
total protein half-life in vivo [1]: 5.051 ± 0.048 h
total protein half-life in vivo [2]: 7.68 h
total protein half-life in vivo [3]: 3.84 ± 0.28 h
total protein half-life in vivo [4]: 5.17 ± 0.12 h
total protein half-life in vivo [5]: 3.6 ± 0.12 h
total protein half-life in vivo [6]: 3.19 ± 0.52 h
total protein half-life in vivo [7]: 4.895 ± 0.03 h
total protein half-life in vivo [8]: 8.13 ± 0.88 h
total protein half-life in vivo [9]: 3.564 ± 0.0078 h
total protein half-life in vivo [10]: 5.88 ± 0.3 h
total protein half-life in vivo [11]: 4.71 ± 0.58 h
total protein half-life in vivo [12]: 8.83 ± 0.85 h
